Reference: patent US11945844B2, “Taste and flavor-modifier proteins” (AMAI PROTEINS LTD., priority 2018, dated 2024)
Positions count from the first letter of the chain named. Names may count otherwise.

Key:
healthy assessors [1] = test: Example 1B: double-blind taste assay, sweet taste threshold in soft drink model solution; type: in vivo, human; conditions: for sweetness average score: grade 0-10; for sweetness potency simulating 1 °Bx perception: relative to sucrose
Method: The sweetness potency of MNEI-based proteins described herein relative to sucrose is typically in the range of 1:700 to 1:16,000. Thus, for the sake of comparison, the MNEI-based proteins and MNEI (as a reference protein) solutions were initially diluted 1:1000 and further diluted as needed. In general, the sweetness threshold of sugar for most people in soft drinks is 0.32%-1.0%. Calculations of MNEI-based proteins and MNEI (as a reference protein concentrations were carried out accordingly. The solutions that were used in this study are detailed in Table 5. The solutions were prepared as follows: for each solution, an amount sweetener (sucrose/MNEI/Designer (modified) Protein; See Table 1 for details) was added as indicated in Table 3 and the solution was completed to 100 g with water (in order to obtain 1% sugar equivalent sweetener). 20 ml of each solution was poured into tasting cup and each sample was marked for blind testing according to Table 5. To evaluate the sweetness threshold for each one of the […] solutions, a double-blind taste assay was performed. The samples tested included MNEI, two MNEI designer proteins (DM08 and DM10), sucrose and mineral water. A series of concentrations were prepared by diluting the stock solution of proteins with mineral water (pH 6.9) shortly before the taste assay (Table 3). Five healthy assessors participated in this session, 2 men and 3 women, 30-50 years old of which 3 were trained tasters. Twenty ml samples were tested randomly, in comparison to sugar solution. Before each assay, assessors were requested to rinse their mouth with water and to eat a neutral-taste cracker until no residual taste remained. The test solution was held in the mouth for at least 10 seconds. The assessors then graded the sample according to their response between 0-10; 0-no sweet perception, 10-very sweet. The sweetness detection threshold was defined as the lowest concentration at which the taster recognized the sample as sweet. Sweetness potencies are reported relative to sucrose.

healthy assessors [2] = test: Example 1C: double-blind taste assay, sweet taste threshold in solution; type: in vivo, human; conditions: for sweetness potency compatible with / simulating 1 °Bx sugar solution: relative to sucrose
Method: The solutions that were used in this study are detailed in Table 4. The solutions were prepared as follows: for each solution, an amount sweetener (sucrose/MNEI/Designer Protein; See Table 1 for details) was added as indicated in Table 6 and the solution was completed to 100 g with water (in order to obtain 1% sugar equivalent sweetener). 20 ml of each solution was poured into tasting cup and each sample was marked for blind testing according to Table 6. To evaluate the sweetness threshold for each one of the […] solutions, a double-blind taste assay was performed. The samples tested included MNEI, […] ([…]), sucrose and mineral water. A series of concentrations were prepared by diluting the stock solution of proteins with mineral water (pH 6.9) shortly before the taste assay (Table 6). Six healthy assessors participated in this session, 5 men and 1 woman, 30-75 years old of which half were trained tasters The sweetness detection threshold was defined as the lowest concentration at which the taster recognized the sample as sweet. Sweetness potencies are reported relative to sucrose. Twenty ml samples were tested randomly, in comparison to sugar solution. Before each assay, assessors were requested to rinse their mouth with water and to eat a neutral-taste cracker until no residual taste remained. The test solution was held in the mouth for at least 10 seconds. The assessors then graded the sample according to their response between 0-10; 0-no sweet perception, 10-very sweet. The sweetness detection threshold was defined as the lowest concentration at which the taster recognized the sample as sweet. Sweetness potencies are reported relative to sucrose.

trained participants = test: Example 1D: blind testing of sweetness potency, aftertaste and lingering in comparison to sugar solution; type: in vivo, human; conditions: for sweetness potency at 8 °BX perception, greater than sugar / sweetness threshold, greater than sugar by weight: fold over sugar
Method: Based on the optimization above, the sweetness potency, the aftertaste and the lingering effect of DM08 and DM09 were tested as compared with MNEI and additional sweeteners as shown in Table 7. Test method included blind testing in 6 trained participants of each one of the proteins in comparison to sugar solution.

participants = test: Example 1D: blind comparison of combinations at 8.0° BX perception with 3.0° BX sugar addition; type: in vivo, human; conditions: 8.0 °BX perception (3.0° BX sugar addition)
Method: Further combinations were tested in blind comparison of the various combinations to sugar solution in 6 participants.

[3] = single substitution in MNEI, Zheng et al; cited from earlier work
[4] = single substitution in MNEI, Zheng et al; cited from earlier work; remark: listed apart in the source
[5] = Sweetness potency relative to MNEI (Table 10); type: in vivo; conditions: MNEI = 1.0
[6] = Structural thermal stability (Tm); type: physicochemical
Excerpt: The term “structural thermal stability” or “thermal stability” as used herein refers to the ability of the modified protein to retain its 3D structure at temperatures above that of the reference protein. The 3D structural stability of a protein can be measured by any method known in the art, such as Circular Dichroism (CD), or thermal shift assays such as Differential Scanning Fluorimetry (DSF) or Differential Scanning calorimetry (DSC). The 3D structure of a protein may have an effect on the function of the protein.

Shelf life stability = type: physicochemical; conditions: at 4° C.
Method: In some embodiments the modified protein has improved shelf life relative to the reference protein. Improved shelf life refers to no sensed change in the sweetness (function) or physical deterioration of a product comprising the composition (e.g. color change, phase separation etc.) after exposure of the product to any temperature up to 150° C., at times, to any temperature between 4° C. to 150°, or to 100°.

[7] = dilution factor 1:500, grade 0-10
[8] = dilution factor 1:1,000, grade 0-10
[9] = dilution factor 1:2,000, grade 0-10

OC[C@H]1O[C@@](CO)(O[C@H]2O[C@H](CO)[C@@H](O)[C@H](O)[C@H]2O)[C@@H](O)[C@@H]1O [Sucrose, reference compound]
sweetness average score (healthy assessors [1]; 0.5% sucrose solution, 5 assessors): 0.63±0.6
sweetness average score (healthy assessors [1]; 1% sucrose solution, 5 assessors): 1.25±0.9
sweetness average score (healthy assessors [2]; 0.5% sucrose solution, grade 0-10, 6 assessors): 1.9±0.9
sweetness average score (healthy assessors [2]; 1% sucrose solution, grade 0-10, 6 assessors): 3.8±1.9
Estimated threshold concentration (trained participants; ratio relative to sucrose, 6 trained participants): 1
Additional After Taste & Notes (trained participants; single sweetener (Table 7)): No
Late onset (trained participants; single sweetener (Table 7)): No
Lingering After Taste (trained participants; single sweetener (Table 7)): No
After Taste (participants): No
Late onset (participants): No
Lingering (participants): No

B1: E2N: MNEI with amino acid substitution E2N, CPD model; also reported by Zheng et al (protein)
chain: GNWEIIDIGPFTQNLGKFAVDEENKIGQYGRLTFNKVIRPCMKKTIYENEGFREIKGYEYQLYVYASDKLFRADISEDYKTRGRKLLRFNGPVPPP
modifications: Monelin MNEI
notes: MNEI with amino acid substitution E2N, CPD model; also reported by Zheng et al
improved sweetness [3]: 3 fold
stability [4]: slight reduced stability

B2: MNEI: single chain Monellin (MNEI) reference protein, SEQ ID NO:5, 96 amino acids (protein)
chain: B1 chain with N2E
modifications: Monelin MNEI
sweetness average score (healthy assessors [1]; dilution factor 1:1,000): 2.2±1.0
sweetness average score (healthy assessors [1]; dilution factor 1:2,000): 0.98±0.4
sweetness average score (healthy assessors [1]; dilution factor 1:4,000): 0.68±0.2
sweetness potency simulating 1 °Bx perception (healthy assessors [1]): about 2,000
sweetness average score (healthy assessors [2]; [7]): 4.7±3.2
sweetness average score (healthy assessors [2]; [8]): 2.5±1.4
sweetness average score (healthy assessors [2]; [9]): 1.0±0.7
sweetness potency compatible with / simulating 1 °Bx sugar solution (healthy assessors [2]): about 1,000
Lingering After Taste (trained participants; single sweetener (Table 7)): Sweet lingering
Sweetness Potency relative to MNEI [5]: 1.0
Tm (° C.) Structural thermal stability [6]: 69 °C
shelf life stability (Shelf life stability): At least 12 months

B3: DM12: modified MNEI protein, SEQ ID NO: 20, I8T/C41T as printed in Table 4 (protein)
chain: B1 chain with N2E, I8T, C41T, R84L
modifications: DM12
sweetness average score (healthy assessors [2]; all dilution factors (1:500, 1:1,000, 1:2,000), no noticeable dose response): ~1.0
Sweetness Potency relative to MNEI [5]: 0.5
Tm (° C.) Structural thermal stability [6]: 65 °C

B4: DM09: modified MNEI protein, SEQ ID NO:17, E2N/E23A/Y65R (protein)
chain: B1 chain with E23A, Y65R
modifications: DM9
sweetness potency at 8 °BX perception, greater than sugar (trained participants): 4,000
sweetness threshold, greater than sugar by weight (trained participants): 15,000
Sweetness Potency relative to MNEI [5]: 7.5
Tm (° C.) Structural thermal stability [6]: 81 °C
melting temperature compared with MNEI ([6]; summary of Table 10): at least equal or improved
shelf life stability (Shelf life stability): At least 6 months

B5: DM10: modified MNEI protein, SEQ ID NO: 18, Q28K/R31T/N35T/S67N (protein)
chain: B1 chain with N2E, Q28K, R31T, N35T, S67N
modifications: DM10
sweetness potency simulating 1 °Bx perception (healthy assessors [1]): about 1,000
Sweetness Potency relative to MNEI [5]: 0.5
Tm (° C.) Structural thermal stability [6]: 71 °C

B6: DM08: modified MNEI protein, SEQ ID NO:16, E2N/E23V/Y65K (protein)
chain: B1 chain with E23V, Y65K
modifications: DM8
sweetness potency simulating 1 °Bx perception (healthy assessors [1]): about 10,000
sweetness potency at 8 °BX perception, greater than sugar (trained participants): 3,500
sweetness threshold, greater than sugar by weight (trained participants): 10,000
Additional After Taste & Notes (trained participants; single sweetener (Table 7)): Low bitterness
Lingering After Taste (trained participants; single sweetener (Table 7)): Sweet lingering
Sweetness Potency relative to MNEI [5]: 6.0
Tm (° C.) Structural thermal stability [6]: 81 °C
shelf life stability (Shelf life stability): At least 6 months

B7: DM11: modified MNEI protein, SEQ ID NO: 19, I8T/N14K/C41T/R84L (protein)
chain: B1 chain with N2E, I8T, N14K, C41T, R84L
modifications: DM11
sweetness average score (healthy assessors [2]; [7]): 0.0±0.0
sweetness average score (healthy assessors [2]; [8]): 0.3±0.8
sweetness average score (healthy assessors [2]; [9]): 0.4±0.9
sweetness potency compatible with / simulating 1 °Bx sugar solution (healthy assessors [2]): below 500
Sweetness Potency relative to MNEI [5]: 0.2
Tm (° C.) Structural thermal stability [6]: 69 °C

B8: DM03: modified MNEI protein, SEQ ID NO: 15, E2N/I8T/N14K/E23A/Q28K/R31T/N35T/C41T/Y65K/S67N/R84L (protein)
chain: B1 chain with I8T, N14K, E23A, Q28K, R31T, N35T, C41T, Y65K, S67N, R84L
modifications: DM3
Sweetness Potency relative to MNEI [5]: Not sweet at all
Tm (° C.) Structural thermal stability [6]: 81.5 °C
